Source: patent publication US20130231277A1 (published 2013)

T1: ectodomain of murine βKlotho (F53 to L995 of SEQ ID NO: 218) with a C-terminal FLAG tag (UniProt Q99N32 53-995)
T1 chain: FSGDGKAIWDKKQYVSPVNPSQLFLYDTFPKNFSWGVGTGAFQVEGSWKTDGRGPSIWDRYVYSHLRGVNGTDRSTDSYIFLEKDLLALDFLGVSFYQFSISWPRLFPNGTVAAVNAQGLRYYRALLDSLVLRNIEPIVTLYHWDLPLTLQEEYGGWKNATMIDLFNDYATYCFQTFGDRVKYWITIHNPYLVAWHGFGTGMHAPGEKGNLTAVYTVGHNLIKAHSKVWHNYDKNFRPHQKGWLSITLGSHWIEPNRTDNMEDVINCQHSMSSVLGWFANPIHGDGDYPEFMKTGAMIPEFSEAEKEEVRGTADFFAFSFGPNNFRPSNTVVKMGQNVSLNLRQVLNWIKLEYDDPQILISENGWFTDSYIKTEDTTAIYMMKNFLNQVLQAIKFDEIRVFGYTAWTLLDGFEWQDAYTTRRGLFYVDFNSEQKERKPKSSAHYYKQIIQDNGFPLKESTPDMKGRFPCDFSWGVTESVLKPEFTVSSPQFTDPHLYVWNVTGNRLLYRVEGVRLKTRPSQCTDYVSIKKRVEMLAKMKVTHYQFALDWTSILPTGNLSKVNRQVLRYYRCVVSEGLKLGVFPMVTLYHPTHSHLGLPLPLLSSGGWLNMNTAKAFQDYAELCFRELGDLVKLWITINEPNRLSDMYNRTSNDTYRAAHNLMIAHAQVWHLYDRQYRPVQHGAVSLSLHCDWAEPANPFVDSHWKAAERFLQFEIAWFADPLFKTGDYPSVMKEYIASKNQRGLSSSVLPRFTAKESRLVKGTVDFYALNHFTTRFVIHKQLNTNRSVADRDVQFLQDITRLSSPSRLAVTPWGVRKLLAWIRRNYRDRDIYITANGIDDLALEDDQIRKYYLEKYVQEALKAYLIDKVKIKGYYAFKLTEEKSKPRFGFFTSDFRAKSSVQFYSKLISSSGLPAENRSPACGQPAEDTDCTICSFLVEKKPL

B1: ligand-binding domain of human FGFR1c (D142 to R365 of SEQ ID NO: 221) (receptor)
chain: DNTKPNRMPVAPYWTSPEKMEKKLHAVPAAKTVKFKCPSSGTPNPTLRWLKNGKEFKPDHRIGGYKVRYATWSIIMDSVVPSDKGNYTCIVENEYGSINHTYQLDVVERSPHRPILQAGLPANKTVALGSNVEFMCKVYSDPQPHIQWLKHIEVNGSKIGPDNLPYVQILKTAGVNTTDKEMEVLHLRNVSFEDAGEYTCLAGNSIGLSHHSAWLTVLEALEER
B2: ligand-binding domain of human FGFR2c (N149 to E368 of SEQ ID NO: 226) (receptor)
chain: NNKRAPYWTNTEKMEKRLHAVPAANTVKFRCPAGGNPMPTMRWLKNGKEFKQEHRIGGYKVRNQHWSLIMESVVPSDKGNYTCVVENEYGSINHTYHLDVVERSPHRPILQAGLPANASTVVGGDVEFVCKVYSDAQPHIQWIKHVEKNGSKYGPDGLPYLKVLKAAGVNTTDKEIEVLYIRNVTFEDAGEYTCLAGNSIGISFHSAWLTVLPAPGREKE

Biological target: T1, ectodomain of murine βKlotho (F53 to …)
Assay: SPR

Kd [nM]	Binder
124	B1
170	B2
